Assay in all cases: purified protein
Common to all, as to conditions: 40°C, pH 5.6, 50 mM sodium acetate

Substrate in series [1]: O=[N+]([O-])c1ccc(O[C@@H]2O[C@H](CO)[C@@H](O)[C@H](O)[C@H]2O)cc1
Substrate in series [2]: O=[N+]([O-])c1ccc(O[C@@H]2O[C@H](CO)[C@@H](O[C@@H]3O[C@H](CO)[C@@H](O)[C@H](O)[C@H]3O)[C@H](O)[C@H]2O)cc1
Format: biochemical, uncultured bacterium LAB25.

Substrate in series [3]: O=[N+]([O-])c1ccc(O[C@@H]2O[C@H](CO)[C@@H](O[C@@H]3O[C@H](CO)[C@@H](O)[C@H](O)[C@H]3O)[C@H](O)[C@H]2O)cc1
Format: biochemical, uncultured bacterium LAB20.

Substrate in series [4]: O=[N+]([O-])c1ccc(O[C@@H]2O[C@H](CO)[C@@H](O[C@@H]3O[C@H](CO)[C@@H](O)[C@H](O)[C@H]3O)[C@H](O)[C@H]2O)cc1
Format: biochemical, uncultured bacterium SRF2.

Here are results for 4 proteins from publication PMC3477023, “Microbial β-glucosidases from cow rumen metagenome enhance the saccharification of lignocellulose in combination with commercial cellulase cocktail” (Biotechnology for Biofuels, 2012).

B1: LAB25g2 (uncultured bacterium LAB25) (protein)
chain: MKKLLTICFVATTFGMTMNAQPKLSADNIDEVLKAMTLEEKAKLLVGGANNFFSANAVVGGEATLVAGAAGTTPEIARLGIPATVLTDGPAGVRINPTRRGTDQTFYATAFPIGSCLASTWNTELVGQVGQAIGNETKEYRCDVILGPGMNLHRNPLCGRNFEYYSEDPFLTGKIAAAYINGVQKEDVGVSAKHFAVNSQETDRTSVDERLSQRAAREIYLRGFEIAVRESNPWTIMASYNIINGTHAMGNRDLLTSILRDDWGYKGIVMTDWIGIRQGLTTISEVQAGNDLMEPGQPAQVQEIIDGVKNGKLAIADVDRNVRRMLEYIVKTPSFRKYPASNKPDFTAHAAITRQSANEGIVLLKNNGTLPWKNIKSVALFGENSYDFLSGGTGSGCVHPPYVVDMLEGLKNAGIKSSETLTDIYRKYIAYARVKFQAERHPAKWFQTEAMGQQKYPEISLSPIAVEKEVRGADAAIITIGRQAGEGIDRDIETEFNLIPEERQLIFDVCQAFHAAGKPVVVIINSGSVIETASWSGYPDAILCAWQPGMEGGNSIADLLTGKVNPSGKLTMTWPIAATDHASTKNFPGALDDYSLMQMLGNGQPIPGHAYTNHEEDIYVGYRFFDTFKRDVAYPFGYGLSYTTFEYSKPVVKAKGQTVEVSITVKNSGSVSGKEVAQVYVAAPKGRLEKPAQELKAFAKTRELQPGESQTLTMTIPVRNLASFDEANSQWLTEAGTYTFRIGANSRDIRCTAEAKLAEYTEQTSNALAPKQKLNLLKQ
notes: gene 2340 bp (779 residues calculated), full ORF from ATG with native signal region in pET-41 Ek/LIC, E. coli BL21(DE3), Ni-NTA, tags removed by enterokinase
Turning to B1, in the series “purified protein [1]”, the Km is 450 ± 60 µM, the kcat was 0.41 s⁻¹ and the kcat/Km came out at 920 M⁻¹ s⁻¹. In addition, in “purified protein [2]”, the Km came out at 390 ± 30 µM, the kcat turned out to be 0.17 ± 0.36 s⁻¹ and the kcat/Km was 438 M⁻¹ s⁻¹.

B2: LAB20g4 (uncultured bacterium LAB20) (protein)
chain: MKKIMLLSATVLALAGCKGDPQLGKDSVDKVLKAMTLEEKVHFVIGTGMAGFGGESAVVGATKNIVPGAAGTTYPIERLGIPSIVLADGPAGLRIDPTREGDENTYYCTHFPIGTLLASTWNQELVESVGKAMGEEVHEYGADVYLAPALNIHRHPLNGRNFEYYSEDPVVAGKTAAAYVRGVQSNDVGTSIKHFAYNNQETNRTGNNAVISPRAQREIYLKGFEITVKESDPWTVMSSYNKINGTYTSQSRDLITTVLRDEWGFKGLVMTDWFGGDNGAEQIAAGNDMLQPGTDLQYQQIMDAIKDGSLSEDELNICVRRCLELVARSPKAKGYAYSNKPDLKAHAAVTRQSALEGMVLLENNGVLPLKDVKNVAVFGCTSFDFIAGGTGSGNVNRAYTVSLLDGLKNAGFNVDESNKEATLKHIADEDAAFKASLTDQLSAFYPTPRPSELVPSAAELAASARANDVAIITFGRNSGEFFDRTSADFSLSAKEKELLAKVTAAFHAKGKKVVVVLNVGGVIETASWKSVPDAILLAWQAGQEGGNSVTDILTGAKSPSGKLPMTFPVNLMDHASSANFPIDSDTGVYFTNRREDVGQKDVDVTKYEEGIYVGYRWFDKQNLPVSYPFGYGLSYTTFEYSAPAVANDGKTVTAKVTVKNTGSVAGKEAVQLYVSAPAGTLDKPVKELKAYGKTKELAPGESQELTLTFPTSELASFDEEASAWKVDAGTYTFQFGASSRDVRCTATAEAAASETPANRVLLMK
notes: gene 2295 bp (764 residues calculated), full ORF from ATG with native signal region in pET-41 Ek/LIC, E. coli BL21(DE3), Ni-NTA, tags removed by enterokinase
As to B2, in the series “purified protein [1]”, the Km came out at 30 ± 3 µM, the kcat is 0.88 s⁻¹ and the kcat/Km came to 29500 M⁻¹ s⁻¹. In addition, in “purified protein [3]”, the Km is 1470 ± 130 µM, the kcat worked out at 0.12 ± 0.2 s⁻¹ and the kcat/Km amounted to 82.7 M⁻¹ s⁻¹.

B3: SRF2g18 (uncultured bacterium SRF2) (protein)
chain: MRKSIHQISLVILAVVAMCGYSLRMKAQQLKAENIDEVVKAMTLEEKCHMVLGRGMHFNDEAKFPGTAGSTFSIARLGVPETYCADSQQGLRMNATRAWDHNDYYPTDFVASMTLASTWDREAAFKVGQGIGNEVREFGLDWILSPAMNLIRNPLCGRNHEYYSEDPYLSGTIAAGYVNGVQSEGTAACPKHFVANNQETNRNNNVSQVSQRALREIYLKAFEIMVKESNPWTIMTSYNKLNGPYAVQNHDLLTTIVRNEWGWKGMYVSDWNAGDDAVAAMLAGNDMLQPGQDKQYQAILEAAQSGKLPMEVIDANVKRILEYVVKTHNFKGYKYNNEPDLKAHAKVVREVGADGIVLLKNSGVLPLVGKRVALFGCTSYDWISGGSGFGGTSVGHYTVSLIEGMRSVGYEIYKPLIAAYTQHIAAEEKRLFPNGRPAFSLMPPARADEKQFTADELNAAIEGSDVAIISLGRKSGEAADRSESDFYLKDGEAQLIKAVSDAYHAKGKQVVVLLDICSPIDVASWQNQVDALVCTWQGGQESGFSVADVLSGKVNPSGKLPMTFQIKYGDAYADKNFPANVDDKTLGAMFMWGYDKDNTPKERQLQANIDFTNYEEDIYVGYRYFDSFSKPVAYPFGFGLSYTTFAYENLSVSETDGVFTVKVDVKNTGNKAGRNVVELFVAAPNSKQLNKPEKELRNYAKTSLLKPGQTETVIMLVKTEDLASFNEKASAWKTDAGVYTFMICSSANQIEVQTSAKVKAWTKKVNNVMKPKLKLNLLKR
notes: gene 2343 bp (780 residues calculated), full ORF from ATG with native signal region in pET-41 Ek/LIC, E. coli BL21(DE3), Ni-NTA, tags removed by enterokinase
With B3, in the series “purified protein [1]”, the Km is 1730 ± 4 µM, the kcat turned out to be 0.27 s⁻¹ and the catalytic efficiency (kcat/Km) worked out at 159 M⁻¹ s⁻¹. Moreover, in the series “purified protein [4]”, the Km worked out at 480 ± 72 µM, the kcat stood at 0.11 ± 0.22 s⁻¹ and the kcat/Km stood at 232 M⁻¹ s⁻¹.

B4: SRF2g14 (uncultured bacterium SRF2) (protein)
chain: MKKTLFFAFGMATLMMGCTSADKVTKNTLNQEEVMNRLSLEDKAHFVIGVGMAGFSGDDAVIGATKNLVPGAAGTTYPLDSLGIPAVVLADGPAGLRIDATREGDSATYYCTHFPIGTLLASTWNQKLVEEVGQAIGEEVKEYGADVLLAPALNIMRNPLCGRNFEYYSEDPVVAGKTASAYITGVQKNDVGTSIKHFAANNQETNRMNTDAHISQRALREIYLKGFEIAIKESKPWTVMTSYNYINGVYTSESKDLVQTILRDEWGYEGTVMTDWFGGKDGAKQMWAGNDMLQPGKAEQFDSIVAGVKSGKLDEADLDRNIQRILNLVEKSPRFQGYQYSNKPDLKAHAAVTRQSAAEGMVLMKNNEVLPLKENVKNVALYGCTSYDFIAGGTGSGNVNHAYVVSLLDGLKNGGYNVSDELKSAYEKYIADCKEARKKEIEEMAKKDKQAAMLARFMPGTLPAEKQFSSEELAKQADASDLAVITIGRISGEFLDRKAADFNLNDSEMKLIQQVCEVYHKVGKQVVVLLNIGGVIETASWKELPDAILCAWQAGQEGGNSVVDVLSGKQSPSGKFTMTWPVKFTDAYSSKNFPIDEDPKIDMMNQGQKGNVKNVDYADYEEDIYVGYRYFDSFDVPVSYPFGFGLSYTTFEYSDAKISQKNDIYDVTVTVKNTGKFEGKEVVELYISAPDNKAANKPSKELKAFAKTRSLKPGESETLTLSVTAPELASFDEAASAWVVAEGEYQFLVGASSQDIKATLTANAKSFQIKVNDVMKPQVQMNLLKR
notes: gene 2361 bp (786 residues calculated), full ORF from ATG with native signal region in pET-41 Ek/LIC, E. coli BL21(DE3), Ni-NTA, tags removed by enterokinase
Take B4: in the series “purified protein [1]”, the Km worked out at 34 ± 3 µM, the turnover number (kcat) worked out at 0.37 s⁻¹ and the catalytic efficiency (kcat/Km) amounted to 10800 M⁻¹ s⁻¹. In “purified protein [4]”, the Km worked out at 480 ± 54 µM, the kcat was found to be 0.19 ± 0.36 s⁻¹ and the kcat/Km turned out to be 416 M⁻¹ s⁻¹.

What is called Km is the substrate concentration at which the rate is half of its maximum. What is called kcat is the maximal rate divided by the concentration of active sites. Usually kcat/Km stands for the turnover number divided by the Michaelis constant.
